Results taken from patent US20090274696A1, “METHODS FOR TREATING INFLAMMATION” (WYETH, priority 2008, published 2009).

Tests used:
[1] = tested on: mouse tracheal epithelium cells (MTEC); assay: MTEC apoptosis, Cell Death Detection ELISAplus; type: cell-based
Experimental: MTEC culture was performed by following the protocol of You et al. (“Growth and differentiation of mouse tracheal epithelial cells: selection of a proliferative population,” Am J Physiol Lung Cell Mol Physiol, 2002, 283:L 1315-1321) with minor modification. Briefly, tracheas were incubated in 1.5 mg/mL pronase (Roche Molecular Biochemicals) for 18 h at 4° C. Cells were treated with 0.5 mg/mL crude pancreatic DNase I (Sigma-Aldrich) on ice for 5 min. After incubation in tissue culture plates for 3-4 h in 5% CO2 at 37° C., nonadherent cells were incubated in a plate coated with type I rat tail collagen (BD Biosciences) in modified BEBM (Lonza, Md. USA) containing 10 μg/ml insulin, 5 μg/ml transferrin, 25 ng/ml epidermal growth factor, 5 μg/ml epinephrine and 30 μg/ml bovine pituitary extract, 0.5 nM Hydrocortisone, 25 ng/ml hEGF, 15 nM Triiodothyronine, 0.25 μg/ml Gentamicin/amphotericin-B and 0.01 μM retinoic acid in 5% CO2 at 37° C. […]
Apoptotic MTEC death was examined using Cell Death Detection ELISAplus (Roche) according to the manufacturer's instructions and calculated as an index of a fold change over a control. […] Quantitation of histone-associated-DNA-fragments in supernatants of MTEC cultures (5×10^4/mL) treated with PBS, 0.1 ng/mL LPS or 100 nM rFIZZ1 was performed at an absorbance of 405-490 nm.

[2] = tested on: airway epithelium of cultured trachea; assay: Histological examination of tracheal rings and airway epithelium; type: cell-based, mouse; conditions: cultured overnight with FIZZ1 100 nM or LPS 0.1 ng/mL
Experimental: Histological examination of the structure of the airway and the status of the airway epithelial layer was performed in whole/sectional fresh trachea and as well as trachea cultured overnight with and without 100 nM FIZZ1. To understand the role of airway epithelium in regulating contractility of TSM, we measured the contractile response of tracheal rings after the epithelium was mechanically removed. Briefly, airway epithelial cells were removed by gently rubbing the intraluminal surface with polyethylene tubing (Becton Dickinson & Company, MD USA) connected to a Precision Glide needle (30G1/2) followed by perfusion with 1.0 ml air bubbles and then 1.0 ml K-H solution (re). All of the experimental tracheas were stained with H & E solution (CAT hematoxylin, Edgar Degas Eosin Working Solution, Biocare Medical, Concord, Calif.) and photographed under a light microscope at ×4.0 and ×20 magnification. Tracheal morphometric analysis was performed using a computer-based image analysis system consisting of a Nikon Eclipse E800 microscope (Melville, N.Y. USA) with a SPOT RT Slider camera (Diagnostic Instruments, Inc., Sterling Heights, Mich. USA).

[3] = tested on: MLCK, MLC-20, α-actin, G proteins, c-Raf/ERK1/2/p38 MAPK in trachea; assay: Western blot of protein expression in treated trachea; type: cell-based, mouse
Experimental: PBS- and FIZZ1-treated trachea were cultured in DMEM overnight for Western blot analysis. Treated and untreated trachea were harvested and homogenized separately in lysis buffer containing 20 mM […], 2.0 mM EGTA, 5.0 mM EDTA, 30 mM sodium fluoride, 40 mM β-glycerophosphate, 20 mM sodium orthovanadate, 1.0 mM phenylmethylsulfonyl-fluoride, 3.0 mM benzamidine, 5 μM pepstatin A, 10 μM leupeptin and 0.5% Triton X-100 at pH 7.2 (KINEXUS, Canada). Tissue supernatants were centrifuged (15,000×g) for 60 min at 4° C. and protein concentrations in the cleared supernatant of homogenized trachea and BAL were examined by bicinchoninic acid assay (BCA) (Pierce Biotechnology, Rockford, Ill.). Absorbance of total protein from each group was measured spectrophotometrically at an optical density of 562 nm and different concentrations of bovine serum albumin (BSA) were applied as a standard curve. Proteins concentrations (μg/ml) were quantified with the standard curve of BSA using BCA assay. Samples were stored at −70° C. until use.
Protein expression levels of were examined using Western blot analysis. Briefly, aliquots (100 μg/well) of BAL supernatant and tracheal lysate were loaded onto 4-20% SDS-PAGE gel in an equal volume. Size-fractionated proteins were transferred to nitrocellulose membrane and then blocked with 5% nonfat dried milk in TBS at room temperature for 60 min. The membrane was individually incubated with primary antibodies to either FIZZ1 (Rabbit anti-mouse FIZZ1, Antigenix America Inc., USA), MLCK, MLC-20, α-actin, Giα1,2, Ggα11, β-actin (Sigma, USA), Gα12/13 (Santa Cruz Biotechnology, Inc., USA), c-Raf, phospho-c-Raf, ERK1/2, phospho-ERK1/2, p38 MAPK or phospho-p38 MAPK (Cell Signaling, Inc., USA) at 4° C. overnight, washed three times with TBS and then incubated with peroxidase-conjugated secondary antibodies for another 60 min. The blot was washed 3 times with TBS and a mixture of Western Blotting Detection Reagent I and II (GE Healthcare Life Sciences, Piscataway, N.J.) was poured on the membrane with gentle agitation for 1 min at room temperature. Immunoreactive bands were detected by chemiluminesence. Protein expression levels were evaluated in relative to expression of β-actin in the same tissue. Quantification of Western blots for phosphorylated signaling proteins was performed using ImageJ and relative band intensity was calculated as % of the intensity of the β-actin protein band.

[4] = 24 hours after rFIZZ1 treatment vs PBS, n=3
[5] = FIZZ1-treated vs PBS-treated trachea, relative to β-actin

B1: rFIZZ1: recombinant FIZZ1 (Leinco Technologies), mouse FIZZ1 protein, resistin-like molecule-α (protein, listed as Mus musculus)
chain: MKTTTCSLLICISLLQLMVPVNTDETIEIIVENKVKELLANIPANYPSTVTKTLSCTSVKTMNRWASCPAGMTATGCACGFACGSWEIQSGDTCNCLCLLV
modifications: (1)..(101) Murine FIZZ1 polypeptide
MTEC apoptosis (apoptosis index) ([1]; 100 nM rFIZZ1, all time points, compared to LPS treatment, N=3): significant increased
start of increase in cell death, time of incubation ([1]; FIZZ1-treated MTEC): 3 h
smooth muscle layers, histology [2]: clear and histologically intact
epithelial layer of tracheal rings, histology ([2]; vs PBS): thinner and some of airway epithelium was denuded
protein expression levels for α-actin and G proteins (Giα1,2, Gqα11, Gα12/13) ([3]; 100 nM rFIZZ1- vs PBS-treated trachea, normalized to β-actin): similar
level of phosphorylation of c-Raf, ERK1/2 and p38 MAPK, kinetic profile ([3]; 100 nM rFIZZ1, greatly increasing only between 16 and 32 hours): marked time-dependent increase
expression of phospho-ERK1/2 [3, 4]: increased
expression of phospho-c-Raf [3, 4]: increased
expression of phospho-p38 MAPK [3, 4]: increased
expression of unphosphorylated c-Raf ([3]; 24 hours, FIZZ1 vs PBS-cultured trachea): slightly increased
expression of MLC-20 [3, 5]: increase
expression of MLCK [3, 5]: increase
